Data reported in US20230114491A1 (IMMUNEONCO BIOPHARMACEUTICALS SHANGHAI, published 2023).

T1: CD24 (human, UniProt P25063 27-59)
T1 construct: whole, on cells; GPI-anchored cell surface protein; also called human CD24; hCD24
T1 chain (looked up): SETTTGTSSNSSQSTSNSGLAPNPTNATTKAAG


Legend:
CD24 [1] = target: T1, CD24; experiment: flow cytometry on CD24+CD47+ MCF-7 cells; positive control
Description: (§1) Cells were washed with cold PBS twice, and then incubated with 100 μl FITC-conjugated secondary antibody against human IgG-Fc (Cat #F9512, Sigma) for 45 min. Cells were washed twice and re-suspended in 200 μl PBS. Then, the cells were subject to FACS analysis using a flow cytometer (Merck Millipore, Guava® easyCyte 5HT).

CD47 [2] = target: T2, CD47 (human, UniProt Q08722 19-323); experiment: flow cytometry on Jurkat cells (naturally expressing CD47), FITC anti-human IgG-Fc
T2 construct: whole, on cells; also called CD47s on Jurkat cells; CD47s on MCF-7 human breast cancer cells
Description: as §1

CD24 [3] = target: T1, CD24; experiment: flow cytometry on MCF-7 cells that carry both CD24 and CD47; the two targets are not resolved
Description: as §1

CD47 [4] = target: T2, CD47; experiment: as above
Description: as §1

T2 sequence (Q08722 19-323): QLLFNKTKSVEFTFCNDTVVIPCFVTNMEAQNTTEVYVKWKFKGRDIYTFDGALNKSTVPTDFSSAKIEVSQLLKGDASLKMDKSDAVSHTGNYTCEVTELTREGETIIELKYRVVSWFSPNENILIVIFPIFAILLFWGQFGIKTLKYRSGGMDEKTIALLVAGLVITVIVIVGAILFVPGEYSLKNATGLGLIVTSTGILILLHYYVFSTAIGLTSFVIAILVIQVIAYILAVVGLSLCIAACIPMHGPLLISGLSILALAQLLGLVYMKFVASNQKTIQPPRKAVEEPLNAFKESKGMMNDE

Binder | binding result (CD24 [1]) | binding result (CD47 [2]) | binding result (CD24 [3]) | binding result (CD47 [4])
IMM47H (antibody, human IgG1, kappa, V domains shown, IgG antibody with humanized VH and humanized VL; also called anti-CD24 antibody IMM47H) VH: DVQLQESGPGLVKPSETLSLTCTVSGYSITSGYSWHWIRQPPGKGLEWIGYIHYSGSTKYNPSLKSRVTISVDTSKNQFSLKLSSVTAADTAVYYCARGADYALDYWGQRTSVTVSS VL: not shown | binds | – | – | –
IMM4701 (bispecific antibody, human IgG1, kappa, Mutated SIRPαD1 linked via (G4S)3 to the N-terminus of each heavy chain of the anti-CD24 IgG IMM47 (mouse VH, humanized VL); also called recombinant fusion protein IMM4701; SIRPαD1-linker-IMM47's heavy chain + IMM47's light chain) heavy: not shown light: DIQMTQSPSSLSASVGDRVTITCKSSQSLLYSSNQKNYLAWYQQKPGKAPKLLIYWASTRESGVPSRFSGSGSGTDFTLTISSLQPEDFATYYCQQNFIYPLTFGGGTKVELKRTVAAPSVFIFPPSDEQLKSGTASVVCLLNNFYPREAKVQWKVDNALQSGNSQESVTEQDSKDSTYSLSSTLTLSKADYEKHKVYACEVTHQGLSSPVTKSFNRGEC | – | binds | binds | –

The remaining lines, values ahead:

binding result (CD24 [1]) | binding result (CD47 [2]) | binding result (CD24 [3]) | binding result (CD47 [4]) | Binder
– | – | binds | binds | IMM4702C (bispecific antibody, human IgG1, kappa, Mutated SIRPαD1 linked via (G4S)3 to the N-terminus of each light chain of IMM47C; also called recombinant fusion protein IMM4702C; IMM47C's heavy chain + SIRPαD1-linker-IMM47C's light chain) heavy: DVQLQESGPDLVKPSQSLSLTCTVTGYSITSGYSWHWIRQFPGNKLEWMGYIHYSGSTKYNPSLKSRISITRDTSKNQFFLQLNSVTTEDTATYFCARGADYALDYWGQRTSVTVSSASTKGPSVFPLAPSSKSTSGGTAALGCLVKDYFPEPVTVSWNSGALTSGVHTFPAVLQSSGLYSLSSVVTVPSSSLGTQTYICNVNHKPSNTKVDKRVEPKSCDKTHTCPPCPAPELLGGPSVFLFPPKPKDTLMISRTPEVTCVVVDVSHEDPEVKFNWYVDGVEVHNAKTKPREEQYNATYRVVSVLTVLHQDWLNGKEYKCKVSNKALPAPIAATISKAKGQPREPQVYTLPPSREEMTKNQVSLTCLVKGFYPSDIAVEWESNGQPENNYKTTPPVLDSDGSFFLYSKLTVDKSRWQQGNVFSCSVMHEALHNHYTQKSLSLSPGK light: not shown
– | – | binds | binds | IMM4702H (bispecific antibody, human IgG1, kappa, Mutated SIRPαD1 linked via (G4S)3 to the N-terminus of each light chain of IMM47H (humanized VH and VL); also called recombinant fusion protein IMM4702H; IMM47H's heavy chain + SIRPαD1-linker-IMM47H's light chain) heavy: DVQLQESGPGLVKPSETLSLTCTVSGYSITSGYSWHWIRQPPGKGLEWIGYIHYSGSTKYNPSLKSRVTISVDTSKNQFSLKLSSVTAADTAVYYCARGADYALDYWGQRTSVTVSSASTKGPSVFPLAPSSKSTSGGTAALGCLVKDYFPEPVTVSWNSGALTSGVHTFPAVLQSSGLYSLSSVVTVPSSSLGTQTYICNVNHKPSNTKVDKRVEPKSCDKTHTCPPCPAPELLGGPSVFLFPPKPKDTLMISRTPEVTCVVVDVSHEDPEVKFNWYVDGVEVHNAKTKPREEQYNATYRVVSVLTVLHQDWLNGKEYKCKVSNKALPAPIAATISKAKGQPREPQVYTLPPSREEMTKNQVSLTCLVKGFYPSDIAVEWESNGQPENNYKTTPPVLDSDGSFFLYSKLTVDKSRWQQGNVFSCSVMHEALHNHYTQKSLSLSPGK light: not shown
